# Laboratory results published in IntAct's records for PubMed 19130088.
# B1: Calcium-dependent protein kinase 4 (Arabidopsis thaliana (Mouse-ear cress)), Q38869 (parent)
# chain: MEKPNPRRPSNSVLPYETPRLRDHYLLGKKLGQGQFGTTYLCTEKSSSANYACKSIPKRKLVCREDYEDVWREIQIMHHLSEHPNVVRIKGTYEDSVFVHIVMEVCEGGELFDRIVSKGCFSEREAAKLIKTILGVVEACHSLGVMHRDLKPENFLFDSPSDDAKLKATDFGLSVFYKPGQYLYDVVGSPYYVAPEVLKKCYGPEIDVWSAGVILYILLSGVPPFWAETESGIFRQILQGKIDFKSDPWPTISEGAKDLIYKMLDRSPKKRISAHEALCHPWIVDEHAAPDKPLDPAVLSRLKQFSQMNKIKKMALRVIAERLSEEEIGGLKELFKMIDTDNSGTITFEELKAGLKRVGSELMESEIKSLMDAADIDNSGTIDYGEFLAATLHINKMEREENLVVAFSYFDKDGSGYITIDELQQACTEFGLCDTPLDDMIKEIDLDNDGKIDFSEFTAMMKKGDGVGRSRTMRNNLNFNIAEAFGVEDTSSTAKSDDSPK
# partner: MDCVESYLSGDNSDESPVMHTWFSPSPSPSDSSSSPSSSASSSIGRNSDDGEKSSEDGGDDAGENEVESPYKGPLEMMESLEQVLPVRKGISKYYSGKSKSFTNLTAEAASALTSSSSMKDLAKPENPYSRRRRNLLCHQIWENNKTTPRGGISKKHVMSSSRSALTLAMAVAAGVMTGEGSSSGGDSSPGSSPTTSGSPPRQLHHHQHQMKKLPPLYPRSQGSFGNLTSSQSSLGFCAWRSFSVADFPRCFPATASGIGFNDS
# Variants of: B1
# Conditions: with o3l1_arath O3L1, Q9C593
row,Variant,effect of a mutation on the interaction
1,MEKPNPRRPSNSVLPYETPRLRDHYLLGKKLGQGQFGTTYLCTEKSSSANYACKSIPKRKLVCREDYEDVWREIQIMHHLSEHPNVVRIKGTYEDSVFVHIVMEVCEGGELFDRIVSKGCFSEREAAKLIKTILGVVEACHSLGVMHRDLKPENFLFDSPSDDAKLKATAFGLSVFYKPGQYLYDVVGSPYYVAPEVLKKCYGPEIDVWSAGVILYILLSGVPPFWAETESGIFRQILQGKIDFKSDPWPTISEGAKDLIYKMLDRSPKKRISAHEALCHPWIVDEHAAPDKPLDPAVLSRLKQASQMNKIKKMALRVIAERLSEEEIGGLKELFKMIDTDNSGTITFEELKAGLKRVGSELMESEIKSLMDAADIDNSGTIDYGEFLAATLHINKMEREENLVVAFSYFDKDGSGYITIDELQQACTEFGLCDTPLDDMIKEIDLDNDGKIDFSEFTAMMKKGDGVGRSRTMRNNLNFNIAEAFGVEDTSSTAKSDDSPK [D170A;F305A],disrupting interaction
2,MEKPNPRRPSNSVLPYETPRLRDHYLLGKKLGQGQFGTTYLCTEKSSSANYACKSIPKRKLVCREDYEDVWREIQIMHHLSEHPNVVRIKGTYEDSVFVHIVMEVCEGGELFDRIVSKGCFSEREAAKLIKTILGVVEACHSLGVMHRDLKPENFLFDSPSDDAKLKATAFGLSVFYKPGQYLYDVVGSPYYVAPEVLKKCYGPEIDVWSAGVILYILLSGVPPFWAETESGIFRQILQGKIDFKSDPWPTISEGAKDLIYKMLDRSPKKRISAHEALCHPWIVDEHAAPDKPLDPAVLSRLKQFSQMNKIKKMALRVIAERLSEEEIGGLKELFKMIDTDNSGTITFEELKAGLKRVGSELMESEIKSLMDAADIDNSGTIDYGEFLAATLHINKMEREENLVVAFSYFDKDGSGYITIDELQQACTEFGLCDTPLDDMIKEIDLDNDGKIDFSEFTAMMKKGDGVGRSRTMRNNLNFNIAEAFGVEDTSSTAKSDDSPK [D170A],disrupting interaction

# The next lines start with the values.
row,effect of a mutation on the interaction,Variant
1,disrupting interaction,MEKPNPRRPSNSVLPYETPRLRDHYLLGKKLGQGQFGTTYLCTEKSSSANYACKSIPKRKLVCREDYEDVWREIQIMHHLSEHPNVVRIKGTYEDSVFVHIVMEVCEGGELFDRIVSKGCFSEREAAKLIKTILGVVEACHSLGVMHRALKPENFLFDSPSDDAKLKATDFGLSVFYKPGQYLYDVVGSPYYVAPEVLKKCYGPEIDVWSAGVILYILLSGVPPFWAETESGIFRQILQGKIDFKSDPWPTISEGAKDLIYKMLDRSPKKRISAHEALCHPWIVDEHAAPDKPLDPAVLSRLKQASQMNKIKKMALRVIAERLSEEEIGGLKELFKMIDTDNSGTITFEELKAGLKRVGSELMESEIKSLMDAADIDNSGTIDYGEFLAATLHINKMEREENLVVAFSYFDKDGSGYITIDELQQACTEFGLCDTPLDDMIKEIDLDNDGKIDFSEFTAMMKKGDGVGRSRTMRNNLNFNIAEAFGVEDTSSTAKSDDSPK [D149A;F305A]
2,disrupting interaction,MEKPNPRRPSNSVLPYETPRLRDHYLLGKKLGQGQFGTTYLCTEKSSSANYACKSIPKRKLVCREDYEDVWREIQIMHHLSEHPNVVRIKGTYEDSVFVHIVMEVCEGGELFDRIVSKGCFSEREAAKLIKTILGVVEACHSLGVMHRALKPENFLFDSPSDDAKLKATDFGLSVFYKPGQYLYDVVGSPYYVAPEVLKKCYGPEIDVWSAGVILYILLSGVPPFWAETESGIFRQILQGKIDFKSDPWPTISEGAKDLIYKMLDRSPKKRISAHEALCHPWIVDEHAAPDKPLDPAVLSRLKQFSQMNKIKKMALRVIAERLSEEEIGGLKELFKMIDTDNSGTITFEELKAGLKRVGSELMESEIKSLMDAADIDNSGTIDYGEFLAATLHINKMEREENLVVAFSYFDKDGSGYITIDELQQACTEFGLCDTPLDDMIKEIDLDNDGKIDFSEFTAMMKKGDGVGRSRTMRNNLNFNIAEAFGVEDTSSTAKSDDSPK [D149A]
